In the experiment the target is Src substrate peptide … derived from p130cas, tyrosine-phosphorylated by Src. Kind of experiment: cell-based or functional assay.

Consider c-Src SH2 domain of the Src reporter, for which the cyan-to-yellow emission ratio of the purified Src reporter after in vitro phosphorylation by Src stood at 25%, the emission ratio change of the Src reporter in HeLa cells on EGF stimulation lay within 25 to 35% and the emission ratio change of the monomeric (A206K CFP/YFP) Src reporter in response to Src kinase in vitro amounted to 43%.

The values are drawn from patent US20090305309A1.
